The results in this text go back to US20230212294A1 (MINGHUI PHARMACEUTICAL SHANGHAI, published 2023).

Assay [1] concerns the target T1, B7-H3 on CHOK cells overexpressing B7-H3.
T1 sequence (Q5ZPR3 whole entry, species assumed, looked up): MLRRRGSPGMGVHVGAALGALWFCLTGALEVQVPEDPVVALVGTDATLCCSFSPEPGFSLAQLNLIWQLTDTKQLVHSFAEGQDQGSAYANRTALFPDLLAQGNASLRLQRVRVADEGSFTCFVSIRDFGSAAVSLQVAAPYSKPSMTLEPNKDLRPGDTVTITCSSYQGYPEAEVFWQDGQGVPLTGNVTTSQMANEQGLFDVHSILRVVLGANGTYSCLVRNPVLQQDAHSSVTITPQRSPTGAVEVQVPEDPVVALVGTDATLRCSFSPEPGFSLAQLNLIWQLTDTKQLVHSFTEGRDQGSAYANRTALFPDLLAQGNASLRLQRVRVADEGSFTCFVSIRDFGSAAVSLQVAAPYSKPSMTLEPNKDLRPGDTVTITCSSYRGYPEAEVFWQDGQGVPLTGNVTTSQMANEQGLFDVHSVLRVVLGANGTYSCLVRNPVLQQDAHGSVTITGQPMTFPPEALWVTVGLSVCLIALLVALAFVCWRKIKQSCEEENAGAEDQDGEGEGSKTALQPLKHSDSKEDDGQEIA
Briefly: cell-based or functional assay.

Assay [2] addresses T2, B7-H3 endogenously expressed on human tumor cell lines (human, UniProt Q5ZPR3 29-534).
T2 sequence (looked up): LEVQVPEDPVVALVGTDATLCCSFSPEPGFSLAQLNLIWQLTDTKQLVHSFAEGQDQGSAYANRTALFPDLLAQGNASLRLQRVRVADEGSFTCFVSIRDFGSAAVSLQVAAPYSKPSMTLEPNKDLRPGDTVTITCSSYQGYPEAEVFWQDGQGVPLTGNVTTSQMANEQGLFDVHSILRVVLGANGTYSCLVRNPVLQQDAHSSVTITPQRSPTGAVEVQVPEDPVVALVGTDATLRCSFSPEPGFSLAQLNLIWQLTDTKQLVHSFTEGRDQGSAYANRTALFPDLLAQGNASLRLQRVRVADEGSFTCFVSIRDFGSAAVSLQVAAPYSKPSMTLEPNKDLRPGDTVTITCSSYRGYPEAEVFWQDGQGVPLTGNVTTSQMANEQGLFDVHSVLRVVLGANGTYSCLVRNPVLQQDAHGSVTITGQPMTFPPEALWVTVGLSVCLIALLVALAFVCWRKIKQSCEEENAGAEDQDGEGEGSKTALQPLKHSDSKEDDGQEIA
Briefly: cell-based or functional assay.

A further assay deals with T3, monkey B7-H3-his (monkey).
T3 chain: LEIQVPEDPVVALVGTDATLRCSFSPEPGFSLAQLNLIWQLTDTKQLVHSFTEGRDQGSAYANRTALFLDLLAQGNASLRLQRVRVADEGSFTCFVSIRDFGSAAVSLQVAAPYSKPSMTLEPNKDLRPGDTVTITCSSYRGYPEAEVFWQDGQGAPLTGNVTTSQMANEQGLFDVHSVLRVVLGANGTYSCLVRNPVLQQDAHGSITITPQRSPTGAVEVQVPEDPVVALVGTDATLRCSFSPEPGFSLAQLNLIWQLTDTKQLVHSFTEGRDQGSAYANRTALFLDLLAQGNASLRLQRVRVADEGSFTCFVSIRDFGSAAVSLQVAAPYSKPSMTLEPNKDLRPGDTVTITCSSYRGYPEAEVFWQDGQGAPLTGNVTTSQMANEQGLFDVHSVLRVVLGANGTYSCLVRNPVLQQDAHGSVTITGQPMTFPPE
Briefly: ELISA, antigen coated at 2 µg/mL. As to the method: (§1) Human B7-H3-his, mouse B7-H3-his and monkey B7-H3-his were diluted to 2 μg/mL with PBS, and added to the ELISA plate at 30 μL per well. The ELISA plate was then incubated in a refrigerator at 4° C. for 16-20 hours. The next day, the ELISA plate was washed once with a lotion (PBS containing 0.05% Tween 20) and then blocked with 5% skim milk powder for 1 hour. After blocking, the ELISA plate was washed once, then added with gradient-diluted anti-B7-H3 antibodies, and incubated at room temperature for 1 h. After incubated, the ELISA plate was washed three times, then added with goat anti-human HRP-labeled secondary antibody, and incubated at room temperature for 1 h. After incubated, the ELISA plate was washed three times, then developed for 5-15 minutes by adding TMB, and finally terminated with 2M sulfuric acid. The data were recorded on the microplate reader.
On the technique in general: In an ELISA, binding on a coated surface is turned into a signal by an enzyme label.

In another assay the target is T4, mouse B7-H3-his (mouse, UniProt Q8VE98 29-244, limits assumed).
T4 construct: His-tagged recombinant protein coated on the ELISA plate; not shown: his tag
T4 sequence (looked up): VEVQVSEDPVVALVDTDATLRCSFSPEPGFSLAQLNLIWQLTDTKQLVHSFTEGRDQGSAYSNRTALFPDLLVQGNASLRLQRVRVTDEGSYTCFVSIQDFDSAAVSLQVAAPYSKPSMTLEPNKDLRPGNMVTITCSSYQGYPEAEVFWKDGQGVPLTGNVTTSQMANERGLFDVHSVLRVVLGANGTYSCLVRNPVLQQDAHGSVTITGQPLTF
Briefly: ELISA, antigen coated at 2 µg/mL. As to the method:
as §1

Assay [3] concerns the target T2, B7-H3 endogenously expressed on human …. Briefly: flow cytometry on NCI-H322 cells. As to the method:
(§2) CHOK cells overexpressing B7-H3 or NCI-H322 cells endogenously expressing B7-H3 were added to a round-bottom 96-well plate at 100,000 cells per well, centrifuged to remove the supernatant, and then added with a gradient-diluted anti-B7-H3 antibody and incubated at 4 degrees for 1 h. After incubation, the cells were washed twice with FACS buffer (PBS containing 2% FBS), then added with fluorescent-labeled goat anti-human secondary antibody (Abcam, ab98596) and incubated for 0.5 h. After incubation, the cells were washed twice with FACS buffer, then resuspended with FACS buffer and detected with flow cytometry (Beckman, cytoFlex).
In general terms: In flow cytometry, cells or beads pass a laser one at a time.

The target of assay [4] is T1, B7-H3 on CHOK cells overexpressing B7-H3. Briefly: flow cytometry on CHOK cells overexpressing B7-H3. The method, then: as §2

B1: IL-P5-C06 (antibody, V domains shown)
VH: QVQLQQSGPELVRPGVSVKISCKGSGYTFTDYAIHWAKQGHAKSLEWIGIINTYNGNSNYNQNFKGKATMTVDKSSSTAYMELTRLTSEDSAIYYCARNYGSSFNWYFDVWGQGTTLTVSS
VL: DIVLTQSPTTMAASPGEKITITCSASSSISSNYLHWYQQKPGFSPKLLIYSTSNLASGVPARFSGSGSGTSYSLTISSVEAEDAATYYCQQYSGYPLTFGAGTKLELK
notes: Unhumanized murine variable regions from the murine immune phage library; full-length antibody
As a reminder, the EC50 is the concentration at which the effect is half-maximal. As for B1, the “IC50 of CHO endocytosis experiment (toxin-labeled secondary antibody, cell viability)” value (“IC50 of CHO endocytosis experiment” below) in assay [1] is 0.0209 µg/mL. The “IC50 of NCI-H322 endocytosis experiment (toxin-labeled secondary antibody, cell viability)” value (“IC50 of NCI-H322 endocytosis experiment” below) in assay [2] was 0.0025 µg/mL. In addition, the concentration giving a half-maximal response (EC50) in the assay with monkey B7-H3-his is 0.116 µg/mL; in the assay with mouse B7-H3-his, 0.134 µg/mL; in assay [3], 0.0795 µg/mL; in assay [4] it was 0.954 µg/mL.

B2: IL-P7-C05 (antibody, V domains shown)
VH: EVQLVESGGDLVQPGGSLKLSCAASGFTFSSYGMSWVRQTPDKRLELVATINSNGGTTYYPDSVKGRFTISRDNAKHTLYLQMSSLKSEDTAMYYCTRNEEFRRGLAYWGQGTLVTVSA
VL: DIQMIQSPASLSVSVGETVTITCRASENIYSNLAWYQQKQGKSPQLLVYAATNLADGVPSRFSGSGSGTQYSLKINSLQSEDFGSYYCQHFWGTPPWTFGGGTKLEIK
notes: Unhumanized murine variable regions from the murine immune phage library; tested as full-length antibody expressed in ExpiCHO-S cells
In the case of B2, the “IC50 of CHO endocytosis experiment” value in assay [1] was 0.0144 µg/mL. Besides, the “IC50 of NCI-H322 endocytosis experiment” value in assay [2] was found to be 0.00296 µg/mL. The EC50 amounted to 0.14 µg/mL in the assay with monkey B7-H3-his, 1.21 µg/mL with mouse B7-H3-his, 0.0126 µg/mL in assay [3] and 0.487 µg/mL in assay [4].

B3: IL-P7-C05-H4L3 (antibody, V domains shown)
VH: EVQLVESGGGLVQPGGSLRLSCAASGFTFSSYAMSWVRQAPGKGLELVAAINSNGGSTYYADSVKGRFTISRDNAKNTLYLQMSSLRAEDTAVYYCTRNEEFRRGLAYWGQGTLVTVSS
VL: DIQMTQSPSSLSASVGDRVTITCRASENIYSNLAWYQQKPGKAPKLLIYAASNLQSGVPSRFSGSGSGTDYTLTISSLQPEDFATYYCQHFWGTPPWTFGQGTKLEIK
notes: Humanized from IL-P7-C05; full-length antibody; also called ILP7C05huVH4 + ILP7C05huVL3
Take B3: the “IC50 of CHO endocytosis experiment” value in assay [1] was found to be 0.0199 µg/mL. Further, the “IC50 of NCI-H322 endocytosis experiment” value in assay [2] was 0.00253 µg/mL. Also, the EC50 in assay [3] amounted to 0.0137 µg/mL; in assay [4] it was 0.48 µg/mL.

B4: IL-P6-C11 (antibody, V domains shown)
VH: EVQLQQSGPELVKPGASVRISCKTSGYTFTDYVIHWVKQNHGGSLEWIGGINRDSGGTTYNQKFQDKVTLTVDKSSNTAYMELRSLTSEDSAVYYCTKWKFPWYFDVWGAGTTVTVSS
VL: DIELTQSPAIMSASPGEKVTMTCSASSSISYMHWYQQKPGTSPKRWIYDTSKLASGVPARFSGSGSGTSYSLTISRVEAEDAATYYCQQWSSNPLTFGSGTKLEIK
notes: Unhumanized murine variable regions; full-length antibody
B4: the “IC50 of CHO endocytosis experiment” value in assay [1] was determined as 0.0035 µg/mL. Also, the EC50 with monkey B7-H3-his was determined as 0.0152 µg/mL; in the assay with mouse B7-H3-his it was 0.523 µg/mL; in assay [3], 0.21 µg/mL; in assay [4], 0.311 µg/mL.

B5: IL-P6-B07 (antibody, V domains shown)
VH: EVQLQQSGPELVKPGASVRISCKTSGYTFTEYVIHWVKQNHGGSLEWIGGINRDSGGTTYNQKFQDKVTLTVDKSSNTAYMELRSLTSEDSAVYYCTKWKFPWYFDVWGAGTTVTVSS
VL: DIVLTQSPAIMSASPGEKVTMTCSASSSVSYMHWYQQKSGTSPKRWIYDTSKLASGVPARFSGSGSGTSYSLTISSMEAEDAATYYCQQWSSNPLTFGAGTKLELK
notes: as for B4
B5: the EC50 with monkey B7-H3-his was determined as 0.183 µg/mL; in the assay with mouse B7-H3-his, 1.29 µg/mL; in assay [3], 0.249 µg/mL.

B6: NL24-A68 (antibody, V domains shown)
VH: QVQLVQSGAEVKKPGSSVKVSCKASGGTFSSYAISWVRQAPGQGLEWMGGIIPILGIANYAQKFQGRVTITADKSTSTAYMELSSLRAEDTAVYYCARGGSGRYLPDYWGQGTLVTVSA
VL: EIVLTQSPATLSLSPGERATLSCRASQSVSSYLAWYQQKPGQAPRLLIYDASNRATGIPARFSGSGSGTDFTLTISSLEPEDFAVYYCQQRSNWPPSLTFGGGTKVEIK
notes: Screened from the human source library; full-length antibody; also called NL24A68HC; NL24A68LC
For the molecule B6, the “IC50 of CHO endocytosis experiment” value in assay [1] stood at 0.0035 µg/mL. For the same molecule, the values for the 50% effective concentration (EC50) (in the assay with monkey B7-H3-his; with mouse B7-H3-his; in assay [3]) were 0.131 µg/mL, 0.205 µg/mL and 0.0484 µg/mL, respectively.

B7: NL24-A17 (antibody, V domains shown)
VH: QVQLVQSGAEVKKPGSSVKVSCKASGGTFSSYAISWVRQAPGQGLEWMGGIIPILGIANYAQKFQGRVTITADESTSTAYMELSSLRSEDTAVYYCARGDSGYDSNYWGQGTLVTVSA
VL: EIVLTQSPATLSLSPGERATLSCRASQSVSTYLAWYQQKPGQAPRLLIYDASNRATGIPARFSGSGSGTDFTLTISSLEPEDYAVYYCQQRSNWPPLFTFGPGTKVDIK
notes: Screened from the human source library; full-length antibody; also called NL24A17HC; NL24A17LC
As to B7, the 50% effective concentration (EC50) with monkey B7-H3-his was 0.0527 µg/mL; in the assay with mouse B7-H3-his it was 0.0643 µg/mL; in assay [3], 0.0267 µg/mL; in assay [4], 0.665 µg/mL.

B8: NL24-A10 (antibody, V domains shown)
VH: EVQLVQSGAEVKKPGSSVKVSCKASGGTFSSYAISWVRQAPGQGLEWMGGIIPIFGTANYAQKFQGRVTITADESTSTAYMELSSLRSEDTAVYYCARGERGSYLIDYWGQGTLVTVSA
VL: EIVLTQSPATLSLSPGERATLSCRASQSVSSYLAWYQQKPGQAPRLLIYDASNRATGIPARFSGSGSGTDFTLTISSLEPEDFAVYYCQQRSNWPPMYTFGQGTKLEIK
notes: Screened from the human source library; full-length antibody; also called NL24A10HC; NL24A10LC
With B8, the concentration giving a half-maximal response (EC50) with monkey B7-H3-his stood at 0.124 µg/mL; with mouse B7-H3-his, 0.219 µg/mL; in assay [3], 0.0304 µg/mL; in assay [4] it was 0.448 µg/mL.

B9: IL-P6-D06 (antibody, V domains shown)
VH: QVQLQQSGPELVRPGVSVKISCKGSGYTFTDYAIHWVKQSHAKSLEWIGVINTYSGNTNYNQKFKGRATMTVDKSSSTAYMELARLTSEDSAIYFCARGVTYGSGYPYWYFDVWGAGTTVTVSS
VL: DIVMTQSQKFMSTSVGDRVSVTCKASQNVGTNVAWYQQKPGQSPKALIYSASYRYSGVPDRFTGSGSGTDFTLTISNVQSEDLAEYFCQQYNSYPYTFGGGTKLEIK
notes: as for B4
On to B9, for which the “IC50 of NCI-H322 endocytosis experiment” value in assay [2] amounted to 0.00179 µg/mL. Further, the EC50 in the assay with monkey B7-H3-his was determined as 0.119 µg/mL; in the assay with mouse B7-H3-his, 1.13 µg/mL; in assay [3] it was 0.103 µg/mL; in assay [4], 0.245 µg/mL.
